{"source": "paper PMC5009119", "about": "“Characterization of the Promoter Region of Biosynthetic Enzyme Genes Involved in Berberine Biosynthesis in Coptis japonica”", "molecular_target": "GST-CjWRKY1 (Coptis japonica, UniProt A0ZT25 1-185)", "sequence (A0ZT25 entry or part of it)": "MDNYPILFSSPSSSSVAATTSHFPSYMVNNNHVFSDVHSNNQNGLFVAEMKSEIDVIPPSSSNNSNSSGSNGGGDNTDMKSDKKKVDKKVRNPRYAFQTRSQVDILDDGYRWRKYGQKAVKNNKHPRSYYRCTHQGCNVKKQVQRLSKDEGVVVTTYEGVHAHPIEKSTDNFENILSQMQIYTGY", "assay": "EMSA; poly(dI-dC) 0.05 ug/ul; 3 ug protein, 20 fmol probe; EMSA: 1x LightShift binding buffer, 1 mM MgCl2, 0.5 mM EDTA, 0.05 ug/ul poly(dI-dC), 20 min at 4 C; pH not stated", "conditions": "protein: recombinant; tags: GST (N-terminal, pGEX-6P-1); label: biotin (sense and antisense oligonucleotides)", "data": [{"binder": "3x W-box probe (W2 of CYP80B2 promoter) (dsDNA) DNA 1: CTGCTGACTAGCTGACTAGCTGACTAGATGG DNA 2: CCATCTAGTCAGCTAGTCAGCTAGTCAGCAG", "values": [{"measurement": "binding result", "value": "binds"}]}]}
